The values below come from PMC6264593.

Some targets named below: hFcγRIIIa (human) (UniProt P08637); hFcγRIIa (human) (UniProt P12318); hFcγRIIb (human) (UniProt P31994); hFcγRI (human) (UniProt P12314); mFcγRIII (mouse) (UniProt P08508); mFcγRIIb (mouse) (UniProt P08101); mFcγRIV (mouse).
Test in all cases: SPR; Fcγ receptor affinities (KD) by Surface Plasma Resonance; mAb up to 6.4 µM
On the technique in general: SPR reads the build-up and loss of mass on a sensor chip optically.

Sequence of hFcγRIIb (human) (P31994 43-310): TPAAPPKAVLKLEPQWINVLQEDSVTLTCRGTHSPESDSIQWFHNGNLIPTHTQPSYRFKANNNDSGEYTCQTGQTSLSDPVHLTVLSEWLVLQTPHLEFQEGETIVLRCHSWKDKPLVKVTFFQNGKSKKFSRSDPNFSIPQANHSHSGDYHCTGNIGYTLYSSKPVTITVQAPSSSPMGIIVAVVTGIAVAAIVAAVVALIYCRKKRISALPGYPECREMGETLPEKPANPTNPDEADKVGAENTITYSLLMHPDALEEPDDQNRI
Sequence of hFcγRIIa (human) (P12318 34-317): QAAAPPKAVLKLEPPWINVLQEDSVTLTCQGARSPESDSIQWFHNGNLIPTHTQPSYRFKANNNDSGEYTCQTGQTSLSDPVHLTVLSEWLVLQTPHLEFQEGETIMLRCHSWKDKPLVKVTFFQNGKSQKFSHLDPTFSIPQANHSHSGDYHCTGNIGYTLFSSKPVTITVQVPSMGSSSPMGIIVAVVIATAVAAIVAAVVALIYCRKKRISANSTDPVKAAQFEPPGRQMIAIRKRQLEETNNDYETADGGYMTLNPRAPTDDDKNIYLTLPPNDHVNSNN
Sequence of hFcγRI (human) (P12314 16-374): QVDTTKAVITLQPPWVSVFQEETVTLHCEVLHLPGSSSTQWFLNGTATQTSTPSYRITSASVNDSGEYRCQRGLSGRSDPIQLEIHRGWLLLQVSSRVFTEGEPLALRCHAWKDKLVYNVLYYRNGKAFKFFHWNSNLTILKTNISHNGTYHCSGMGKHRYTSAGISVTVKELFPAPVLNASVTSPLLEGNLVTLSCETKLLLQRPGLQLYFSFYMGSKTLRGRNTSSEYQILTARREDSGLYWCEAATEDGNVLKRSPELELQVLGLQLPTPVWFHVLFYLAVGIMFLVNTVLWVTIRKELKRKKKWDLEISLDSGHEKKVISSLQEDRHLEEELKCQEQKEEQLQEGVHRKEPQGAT
Sequence of mFcγRIIb (mouse) (P08101 30-330): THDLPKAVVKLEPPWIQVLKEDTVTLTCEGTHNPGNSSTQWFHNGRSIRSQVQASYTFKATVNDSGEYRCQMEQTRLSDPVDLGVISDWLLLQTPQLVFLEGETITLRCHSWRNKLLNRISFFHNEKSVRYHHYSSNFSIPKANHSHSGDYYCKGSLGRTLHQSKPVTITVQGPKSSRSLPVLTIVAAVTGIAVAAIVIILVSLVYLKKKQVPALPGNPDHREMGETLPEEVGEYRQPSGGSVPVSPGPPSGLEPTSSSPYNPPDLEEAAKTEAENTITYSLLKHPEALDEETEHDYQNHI
Sequence of mFcγRIV (mouse) (A0A0B4J1G0 21-249): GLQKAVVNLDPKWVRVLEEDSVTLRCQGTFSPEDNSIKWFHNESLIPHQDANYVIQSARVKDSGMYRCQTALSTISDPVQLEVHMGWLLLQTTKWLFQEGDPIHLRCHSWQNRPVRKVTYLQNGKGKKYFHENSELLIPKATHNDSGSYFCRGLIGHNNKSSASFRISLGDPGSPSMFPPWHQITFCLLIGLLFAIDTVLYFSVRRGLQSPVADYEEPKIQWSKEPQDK
Sequence of mFcγRIII (mouse) (P08508 31-261): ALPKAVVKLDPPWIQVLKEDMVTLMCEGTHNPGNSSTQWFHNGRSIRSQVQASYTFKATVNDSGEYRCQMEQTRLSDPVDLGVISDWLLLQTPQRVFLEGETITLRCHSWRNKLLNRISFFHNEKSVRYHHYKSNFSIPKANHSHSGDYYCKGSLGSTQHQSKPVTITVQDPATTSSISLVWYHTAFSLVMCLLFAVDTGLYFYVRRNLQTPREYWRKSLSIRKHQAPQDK
Sequence of hFcγRIIIa (human) (P08637 17-254): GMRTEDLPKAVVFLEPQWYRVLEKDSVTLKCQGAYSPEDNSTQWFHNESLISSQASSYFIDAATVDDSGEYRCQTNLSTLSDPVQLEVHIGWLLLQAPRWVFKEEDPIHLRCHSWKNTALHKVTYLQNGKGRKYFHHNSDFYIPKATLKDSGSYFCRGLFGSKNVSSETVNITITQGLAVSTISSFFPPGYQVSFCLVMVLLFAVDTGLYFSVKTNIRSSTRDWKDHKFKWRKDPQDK

In the case of 3D6-huIgG1 (antibody), the Kd with hFcγRIIIa (human) amounted to 472 nM; with hFcγRIIa (human) it was 794 nM; in the test with hFcγRIIb (human), 2060 nM; with hFcγRI (human), 0.86 nM.
With 3D6mIgG2b (antibody), the Kd with mFcγRIII (mouse) stood at 119 nM; in the test with mFcγRIIb (mouse), 456 nM; in the test with mFcγRIV (mouse) it was 22 nM.
SAR228810 (antibody): the Kd turned out to be 2640 nM with hFcγRIIa (human), 1830 nM in the test with hFcγRIIb (human) and 244 nM in the test with hFcγRI (human).
In the test with mFcγRIIb (mouse), SAR255952 (antibody) showed a Kd of more than 4500 nM.

What is called Kd is the equilibrium constant for the complex coming apart. High values mean a looser complex, low ones a tighter complex.
